Test results reported in paper PMC5673899, “Structural basis for receptor recognition of pollen tube attraction peptides” (Nature Communications, 2017).
“Also recorded” adds a separate entry of the source.

Assays:
MIK1^LRR = assay: In vitro pull-down with MIK1^LRR; assay type: binding, Arabidopsis; conditions: Ni-NTA, excess AtLURE1.2, on ice 30 min, washed five times; SDS-PAGE, Coomassie blue
Source text: (§1) The genes of AtPRK3 ^LRR (residues 1–241), AtPRK4 ^LRR (residues 1–277), AtPRK5 ^LRR (residues 1–279), AtPRK6 ^LRR (residues 1–262), MIK1 ^LRR (residues 1–633), MIK2 ^LRR (residues 1–707) were amplified from Arabidopsis cDNA library by PCR and cloned into pFastBac-1 vector with a C-terminal 6 × His-tag. Their identities were confirmed by sequencing. The mature form of AtLURE1.1 (residues 20–94), AtLURE1.2 (residues 20–90), AtLURE1.3 (residues 21–91), and AtLURE1.4 (residues 20–90) were cloned into pFastBac-1 vector, with a modified N-terminal hemolin signal peptide and 6 × His-SUMO tag. Point mutation constructs were generated by QuickChange Site-Directed Mutagenesis Kit (Strategene). All the proteins were expressed using the Bac-to-Bac baculovirus expression system (Invitrogen) in High Five cells at 22 °C. One liter of High Five cells (2.0 × 10^6 cells mL^−1) cultured in the medium from Expression Systems was infected with 25 ml recombinant baculovirus and the media was collected after 72 h of infection. Secreted LRR proteins were purified using Ni-NTA (Novagen) and size-exclusion chromatography (Hiload 200, GE Healthcare) in buffer containing 10 mM Bis-Tris pH 6.0 and 100 mM NaCl. […]
The purified His-tagged ectodomains of AtPRK proteins and MIK1, 2 were used to pull-down the AtLURE1.2 peptide. […] All the eluted samples were analyzed by SDS-PAGE and visualized by Coomassie blue staining. […]

MIK2^LRR = assay: ITC, AtLURE1.2 titrated into MIK2^LRR; assay type: binding, Arabidopsis; conditions: 25 °C, 200 mM HEPES pH 7.0, 100 mM NaCl, as for MIK1LRR (0.5 mM AtLURE1.2 into 0.05 mM)
Source text: as §1
Supplementary Figure 6: Binding affinity between MIK1LRR, MIK2LRR and AtLURE1.2 was not detected in ITC assay. […]

[1] = test system: semi-in-vivo pollen tubes; assay: Gelatin-beads assay, wild-type semi-in-vivo pollen tubes; assay type: cell-based, Arabidopsis; conditions: gelatin beads containing 250 nM peptide
Experimental: Attraction activities of mutant AtLURE1.2 peptides were examined for semi-in-vivo pollen tubes growing through cut, pollinated pistils by gelatin-beads assay and wavy assay, [20]. For the gelatin-beads assay, pollen tubes were grown on solid pollen germination medium poured into a mold made with 1-mm thick silicone rubber and cover glasses. After hand-pollination, the topside cover glass was removed and the medium was covered with hydrated silicone oil (KF-96–100CS; Shin-Etsu). Attraction of pollen tubes toward the peptide was evaluated using AtLURE1 peptide containing gelatine beads under an inverted microscope (IX71, Olympus) equipped with a micro-manipulator (Narishige). For the AtLURE1-responsive wavy assay, the purified AtLURE1.2 peptide was added to solid pollen germination medium, which was melted at 70 °C and then cooled to a certain degree. The mixture was mixed by vortexing and poured into the mold. Pollen tubes of each genotype were grown through cut styles, as mentioned above. Each peptide (25 μM in 10 mM Bis-Tris (pH 6.0) and 100 mM NaCl) was diluted to 250 nM by cultivation medium in both assays. To examine reactivity of PRK6 mutants to AtLURE1.2, constructs for PRK6 mutants, D234A, N239A, and ΔN239I240, were generated by site-directed mutagenesis from a wild-type PRK6 vector, pPZP221-pPRK6::PRK6-mRuby2 (ref. [20]). Wild-type and mutant PRK6 constructs were introduced into prk6–1 plant. After transformants were selected by the same criteria as previously, beads assay and wavy assay were performed in several T1 lines and single T2 line, respectively, for each genotype using 250 nM wild-type AtLURE1.2 peptide.

B1: AtLURE1.2: mature form of AtLURE1.2 (residues 20–90), defensin-like cysteine-rich peptide expressed in insect cells (protein)
chain: TLINGSSDEERTYSFSPTTSPFDPRSLNQELKIGRIGYCFDCARACMRRGKYIRTCSFERKLCRCSISDIK
modifications: left off: His6, N-terminal, cleaved | SUMO, N-terminal, cleaved
notes: mature form of AtLURE1.2 (residues 20–90), defensin-like cysteine-rich peptide expressed in insect cells
- interaction in pull-down assay (MIK1^LRR): none of the other LRR proteins was found to interact
- binding in ITC (MIK2^LRR): not detected; also recorded: no obvious heat was produced; also recorded: none of the purified AtPRK3^LRR, MIK1^LRR or MIK2^LRR proteins showed detectable interaction
- pollen tube attraction activity (in words) ([1]; Tukey−Kramer test, P < 0.05): efficiently attracted pollen tubes
- attraction frequency of pollen tubes ([1]; mean ± SD, 9–16 pollen tubes per assay, 3−5 assays): 94 ± 7%
